# Source: paper PMC12111831, “Phase-Separated Multienzyme Condensates for Efficient Synthesis of Imines from Carboxylic Acids with Enhanced Dual-Cofactor Recycling” (International Journal of Molecular Sciences, 2025)
# Assays:
# AspRedAm = target: T1, AspRedAm (Aspergillus oryzae, UniProt Q2TW47); assay: NADPH absorbance at […] nm, specific activity; assay type: biochemical; conditions: 10 mM aldehyde, 20 mM amine, 0.2 mM NADPH, MOPS pH 7.5, 30 °C
# T1 sequence (Q2TW47 1-295): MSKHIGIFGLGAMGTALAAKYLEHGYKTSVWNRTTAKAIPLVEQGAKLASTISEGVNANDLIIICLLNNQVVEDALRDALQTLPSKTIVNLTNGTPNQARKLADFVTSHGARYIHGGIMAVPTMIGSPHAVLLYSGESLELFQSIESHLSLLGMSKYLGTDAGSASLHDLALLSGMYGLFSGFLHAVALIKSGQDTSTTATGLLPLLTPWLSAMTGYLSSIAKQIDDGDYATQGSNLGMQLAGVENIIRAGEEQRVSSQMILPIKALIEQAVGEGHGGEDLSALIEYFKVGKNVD
# O=C(O)c1ccccc1 = assay: purified protein; conditions: ATP, NADPH, Mg2+, 30 °C
# CCCC(=O)O = assay: purified protein, by the assay type; conditions: pH 7.5; 30.0 °C
# Protocol: (§1) Varying substrate concentrations were dissolved in 250 mM NaOH. Substrate-free controls were included for baseline correction. Kinetic parameters were derived via the nonlinear regression of Michaelis–Menten plots using OriginPro 2021 SR2 (64-bit) Build 9.8.0.240.
# COc1ccc(C(=O)O)cc1 = assay: purified protein, by the assay type; conditions: pH 7.5; 30.0 °C
# Protocol: as §1
# Cc1ccc(C(=O)O)cc1 = assay: purified protein, by the assay type; conditions: pH 7.5; 30.0 °C
# Protocol: as §1
# O=C(O)CCc1ccccc1 = assay: purified protein, by the assay type; conditions: pH 7.5; 30.0 °C
# Protocol: as §1
# O=C(O)c1ccc2c(c1)OCO2 = assay: purified protein, by the assay type; conditions: pH 7.5; 30.0 °C
# Protocol: as §1
molecule,measurement,setting,value
C#CCN [propargylamine],"NADPH absorbance at 340 nm, specific activity",AspRedAm,"both enzymes exhibited catalytic activity toward all tested substrates, except for substrate 2h with cyclopropylamine"
NC1CC1 [cyclopropylamine],"NADPH absorbance at 340 nm, specific activity",AspRedAm; not with aldehyde 2h,"both enzymes exhibited catalytic activity toward all tested substrates, except for substrate 2h with cyclopropylamine"
NiCAR (Nocardia iowensis),Km,O=C(O)c1ccccc1,450 ± 30 µM
same,kcat,O=C(O)c1ccccc1,3.9227 ± 0.0378 s⁻¹
same,Km,CCCC(=O)O,101930 ± 21090 µM
same,kcat,CCCC(=O)O,5.56 ± 1.05 s⁻¹
same,Km,COc1ccc(C(=O)O)cc1,1580 ± 140 µM
same,kcat,COc1ccc(C(=O)O)cc1,1.89 ± 0.0387 s⁻¹
same,Km,Cc1ccc(C(=O)O)cc1,1850 ± 160 µM
same,kcat,Cc1ccc(C(=O)O)cc1,3.17 ± 0.0792 s⁻¹
same,Km,O=C(O)CCc1ccccc1,1040 ± 90 µM
same,kcat,O=C(O)CCc1ccccc1,3.15 ± 0.0588 s⁻¹
same,Km,O=C(O)c1ccc2c(c1)OCO2,4490 ± 620 µM
same,kcat,O=C(O)c1ccc2c(c1)OCO2,1.58 ± 0.0875 s⁻¹
